# According to the supplement of paper PMC12636428:
# Tested on: Saccharomyces cerevisiae
# Test: transcriptional activation domain activity (GFP:mCherry ratio, weighted mean of sorted bins, harmonized to initial dataset scale) (arbitrary fluorescence ratio units); higher = stronger transcriptional activation
# Details: beta-estradiol 1 µM; induction time 4 h
# Summary of the method: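 Yeast diploids with a GFP reporter received barcoded protein tiles, fused to an estradiol-inducible synthetic transcription factor, at the URA3 locus. Cultures were diluted 1:5 into SC holding 1 uM beta-estradiol, incubated 4 hours at 30 °C, sorted into 8 bins on GFP:mCherry ratio, and sequenced for barcodes, with tiles under 50 reads discarded. Activation activity values come from the read-weighted mean of bin median fluorescence, averaged across barcodes and linearly placed on the initial dataset scale.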
row,Sequence,transcriptional activation domain activity
1,ESPSPDQEEEVEDRENDKPKANTAKKAKPAEGKKTGGRKKAALGGAAKKKAEK,43300
2,FFFSSIFFIVFGGPGQLFFFFSILLFLYPISTFMRCIIHRVFLLFFAFFFFLF,29400
3,MLVSVANLHYFFFPLSFGVCVLRYSSLAMCFFCIYCCLVTMLCILLLLLWSTI,39800
4,LLAVDPNVWSHFDIVVLEFSRHYIHFHWKSLLWLVGPVVVWGWMVCTLLVWFI,49400
5,DDHRSRRYRDRGRDRDQDEDAEDSHRDRRRRRRSPDEGASRRHQRESHADGDG,35700
6,MTEDEGKPRRKRARLACTACNARRVKCNVTESRPCHNCIAGNVLCETVPSRRG,36100
7,SLLLPQQPVFVSENVGSEFSSLNEFLSMLENPLLTQTSLSSSSASNVHLENGS,98100
8,EQRAEGVGERRGEGGGEAQRDGAADARRHERAAEGPVRHGERRREVQEGVQGV,23500
9,NGPQGQQQQGQRAGQRGQGAGAGEAGQQNGQQGQQAGQRGRGTQAGAAGQQNG,20600
10,GLAELAAALDDSDVQYAYARVEYANDAESKRVKFVLIVWIGSGTKVMRKGRAG,42200
11,ATAARRPRADEGEEGLDEATDAAAAPAAAAENGEAAAAKPKKNRKSKAAKAAA,16300
12,RTSEMIMGFFFKNIVWTFVLFWYQIFCQFNGSMMFEYVLVALYNLIFTSLPII,62900
13,MEYLIGHMEIYSVHFLHFCFFLRFLIFFFPLFFFFSYFSFHSYIYTFFFLEII,31800
14,MISPIFPRNLIIHNITFSMLFSFFSFLFYTLYALFNFPVPFFLSSILTPLNIF,71200
15,RNLMVIVLVVGNLRLVIENIQKYGVLICIRCHDFRQHDVMLGLLLYFLIPCHL,53400
16,MYHAKFLYLLLGFLVYFLSSQTSINVYYISLNPFLFLAHPTILLIPLFPFRYT,39700
17,KEDAGEAEAEGSGDKAEEAIAEKPKRGRKKAEPKEKAEPAAKPAVGRKKSVAE,45700
18,LEEAEDGGGALADGEIEVRVAATGVTVDDARAAAGLRAGYTVGTECSGTVARV,11500
19,LLPGPPFPFPPLLLFFLVVFLSCSFFELSFMFLFFVYFFFISLFFCIFFFDNH,34700
20,LFLFYACVNMIFWRVFMRISYSCPAHLKFFLTVEKWTELVKMTADAIDWLDAH,47800
21,GDAHAAPKGRKGGGKKRKAADEDGEEEGEAEKPAKKAGKRGKKGKATPTQEEG,12100

row,Sequence,transcriptional activation domain activity
1,VLVVLCLRFFIFGIFGYILGFWMQHLLPYTPLSLSFMCLLFCLSFHLDISPSP,45600
2,EEEAVVSAATDEAVKEEGRQVDAGSADAGGEAAAPRKKIRKRSKAKPTPEQKL,21200
3,LFYLLLLYYYYYCTILYILLHIHYIYIIYLFFLFVYSIYLFFFYILLFIIYYS,52300
4,YSYVDSNMDSISSVVSEDLLDERGHEKIEDEDEDNDLDEDDIYDISLLKNRRK,26500
5,MMLLSVRLCIVFFSFMAACFGIPYTPSILFASLFASALGLHILRIFFLVIVHF,51300
6,MCGGSFSLHRLHFFFIYVCFFCFVLSCLFTLAYWVVLYYARLVMGFWWFWWFG,58300
7,MTVMTLCFFGSSFGPWAGAWFCCLLLLLLLLVIAVSLFLHVCFAWEFWFCLCY,39500
8,VALPCSFRGLLRFACVTWLKHLFGLISRVLDFQAWWGVQLHCLFLLGLMLLPP,63500
9,MLGSARVWQKRACMGFSFSLVIVSFTPPHRLFSHVQLGSIVSLLFFVTLFNFM,20700
10,GASGGTKLAKKAPAAAAPKKVAAPKKEAAPKKEIKEKKPAAAPKKAAVPKKEA,38800
11,ASGSGSGSKSGGGGARQGGGGAAGAAGGKGGGAAGGSKGGGGAWGKMKAAASD,18700
12,FKVLMQVMPFVLHGLVDDKLRTLWRMLGELGAFLWMPLIKDKEVYLRKLAVII,48700
13,SHYALCVNMHAYWHSNPHFGSEHRWLGFPPFYHVFGLSYILLLAPCLGATVCV,61100
14,MDIYGSCICPGGLALGEFFYFLFFLVLSSYYYYFLFSFLFLFSLFLSFVVWRF,49700
15,VSYVLFVLMHRSTQPLVQHLLFKLRWLPFPFFITKHYYSWIISAYSFIGYRNL,56400
16,IWMILEIARSTLVFFRIYNFGHFVYNLVTKFDLMAIIPLLLVTLLPQIWFFCF,33800
17,KDRKEKAEEKSGEEDRGKREDGAAEGEEREEVKRSAARKPKTVPAAASKKRPK,34600
18,MAHLAYHPLYPLWDLLSHTLIMLIFLITLICLLCPFPSLFIFTPICLSVYLLI,27200
19,MTWFTATLTVLYHLTHPIITIFRWLLLPLTPFYHLFSYIFSTLFLLPSLYIYF,53100
20,PAPKRRGRPSKERVEEQQASDDETAQSSPKRRGRLPRQAASASASASAPVAAK,44100
21,MYILDKIKGEKGKQEGGEREAERGRGGAGRGEQEQEGGAGAGRGSRSKKGEQG,30700

row,Sequence,transcriptional activation domain activity
1,AAAKAKDNIKEEDEADELAPVKKTAKKRGPKAQDVDGEGAPKKKPRGRPAKKA,17000
2,KAAPEDKEPEPVAVSYKVNDTVMAKWVSGDKGYYPARITSVTGSSTDPIYVVK,19800
3,TATKPTESKPVETKTDAAAAGKSTTPANGSGSASATKPAETASTTEKKKKNRL,30400
4,YFYGLERRHVTCSQLAYYLCDKALTPMFCGGRVGNDCFDPWGRLLTYWCFLPL,77300
5,MATRHVSAANNANKPRACLTCRTSKHKCDGNDRSTAPCSRCLRTGKSCIWPAK,33800
6,WIQCTIPGYVSNFAYGLASGFTVTLNTAVLMEIVFHSKSYRILILSLFTTLYV,61400
7,MAQVAVFVVHKFLYGIIPLFEISTCAYFPLLVSLWHLNYLLFYAVMFMRLIIL,75000
8,RRTSSTSSPSRSSSGTRARARSRSSRSTRSAAACSPSTRRAPRPTARPSSRPS,27400
9,EVETRYTLAIELFQPILKVLVDFESDDLKFGFLVAWLVGLYRRLWELCVFKYI,58900
10,APTTSKKRGRKADTNSDDAGSPSEPRRLRRSHEACARCRSKKIKASPVGRHRP,30900
11,MMGLSLGFKCCFQMLSLFSILFSFHLVLRLLSFPFFSCSYCILYRFLFFCWGW,24500
12,KEEETKPEEAAATEATPEATTEPAAEGAEAPKEEAKTDAAAETKKEDRPKSPG,20500
13,VRVPDFHHADGRDHVRDGEDGHGDGHVRVHAHAQGGGQGRGLARDRVDAHARE,13200
14,LQCEGFTLRVPFVVDDTFYALMRCFDFFTIDEDPELWRLWCSLLRYALRLQNG,40200
15,GSRRPRKDKSHKKKDRSSGDGTEKERKHRDRGDKGDRERAKSRERGEKGKRDR,20500
16,CLAGKDLFGTLFGLRVIIQVVGILMSIPHTLVVTTRWIRRMLLVYFLDQLYYT,80600
17,MSFFLSFFVLFCFYFYFTPCLFFSSHLLTFFFFSDSPLFVFYFFYFFFSSFVY,67700
18,MAHRFWTLQLFGNIYIIQFLGCIGFGLSLWILMHLINMIEVRNQTIQLSMLFA,62800
19,HINYFSLSLIIFYFLIFFISNYLLIKFLFFNYFLPKWWSSRPLRSMIYSLFSI,42500
20,MGGYLFHLLFFSFFLFSSLLRVYYYIVDMGGVLSLLYRFFLLLVTIFVRCIIF,57100
21,MWVTQHCLLATQWALLCVPPFRGLLLLLLFLYVFKFLFGLRIFILYLVSMLVM,46100

row,Sequence,transcriptional activation domain activity
1,FTPWLSSTFFLFFAVIRWGAYCLVPLLLPSFPSIPLSLYPIRFPSTHVLVLIV,61000
2,AGALLDLYLRRNRCYVSNGYLGCSVLYLSTSLVVSCFLSWVTATILIILDIKR,83600
3,LEGGRVIQRGRHNVATDVVGCFYDAFCTLLPQMIIVRVTRGKAWDSRVIYPTE,66400
4,TVSDEAIEVCVAAQAREGEANKSVREVIAEALNVPKSDVEIAKGMKSREKTVA,25700
5,FRAPYPCCLDVVFAMIWAGARVCLFDSTKALEDLLLARFVLPPHVVCLVGLAQ,48900
6,MWVGELLGYYCTMALSKALGCKVRLLRAWAEMHNICGFYSRDSIPCRMYASRV,61800
7,MSNVYNCHPALLCYLALPCPTHLCLLSSLFPSVVSTVHAFLLLFLALCPISWI,71400
8,IFASALLVACFIHVKGVLDFSLYILKITCRADLDVDEWRSHFGMGEYVVYVGM,61400
9,LYPQDLVSSPAMSHLTANNDDFDDLLSVASMNSNYLLPVNSHGYKHISNLDEL,69100
10,YNGYHKVGEHYLLCKAVVDHKKKSSIHVHLIEVQPTVFNILEGLLYPKILFSS,53500
11,LWDANSFLTPMAQGLFKNLKSFEMLGMNCKVIRALILLIHRLWLLTNRLYRYN,34000
12,DIEQQVRFRLTQIYFLILKLDAFFHFVLCVFYAVVMTQEKYYTLWGVIDRKFI,79400
13,RASTTSPTCSGTSTSARGRGAACSRGASTSGRCTRSSRRTRGSRSGTATSTTR,33600
14,YVLVLTYLNYFVLILFGHMRDILGKVFKAQAYVHLKTVNGYAPLVSDFDSFYN,63900
15,MATPSTGAPPPKQIRFVNNQGQPPSKRRRVNAACLTCRKRKTRCDGEKPTCST,20200
16,LLRLLQCVFVAALLLVSKLCTFTEMMPDVVLRQFLVVAIDILFYGKLTIVPWN,54600
17,MLSVRVVVLFAGHLCFLSSSYVLIRCFGDGFNSFVSFRFSSVWWWYLHTLCTH,87900
18,QSLNFDLQTNSYYSNARGSDPSSYAIEGEYKTLATDDLGNILNLNYGETNEVI,80000
19,AEDRYIMELFVEDFICLAISGGPRLPVERAVSSWMVRILLSIQIRNYMQGNRQ,44500
20,YEIKRRLQVCRAVLDEHINPYEFKHHTVYREALLKLMYFHCVISLRLVLSWTD,65300
